According to paper PMC9486808 (ACS Chemical Biology, 2022):
No end group written: not given here.

Biological target: Recombinant soluble trimeric H1 HA ectodomain of A/California/04/2009 (H1N1) (Influenza A virus A/California/04/2009 …)
Assay: fluorescence polarisation
Conditions: both partners purified

B1: Fluorescein-labeled macrocyclic peptide S3 (peptide)
chain: YLKIYWSKIHGLVSEWC
modifications: thioether (positions not given here); not fully specified (N-terminus, bridges); also: fluorescein (FAM) label, position not given here
Question: For B1, which Kd is on record?
Answer: ≤ 1 nM

B2: Fluorescein-labeled macrocyclic peptide L4 (peptide)
chain: YRWVWTSFFSEPYFVVC
modifications: thioether (positions not given here); not fully specified (N-terminus, bridges); also: fluorescein (FAM) label, position not given here
Question: Which Kd does the source give for B2 here?
Answer: ≤ 1 nM

B3: Fluorescein-labeled macrocyclic peptide S5 (peptide)
chain: YVLFRWDHGTLATHWVC
modifications: thioether (positions not given here); not fully specified (N-terminus, bridges); also: fluorescein (FAM) label, position not given here
Question: Which Kd does the source give for B3 here?
Answer: ≤ 1 nM

B4: Fluorescein-labeled macrocyclic peptide L2 (peptide)
chain: YWHKNKYVLTYSCLFAA
modifications: thioether (positions not given here); not fully specified (N-terminus, bridges); also: fluorescein (FAM) label, position not given here
Question: Which Kd does the source give for B4 here?
Answer: 2.4 nM
